Assay results from US20120220489A1.

Key:
[1] = target: Histone H3 recombinant protein, human, Upstate 14-494 (human) (UniProt P68431); assay: RPA standard curves, mean of duplicate assays
[2] = target: Histone H3 recombinant protein, human, Upstate 14-494 (human) (UniProt P68431); assay: RPA standard curve, assay 1, LOD back-calculated from one-site fit
[3] = target: Histone H3-BSA 2.7x peptide-protein conjugate (bovine); assay: as above
[4] = target: ERK1 (p44) inactive (GST tagged), human, Invitrogen PV 3312 (human) (UniProt P27361); assay: RPA standard curves, mean of duplicate assays
Chain of UniProt P27361 (P27361 whole entry): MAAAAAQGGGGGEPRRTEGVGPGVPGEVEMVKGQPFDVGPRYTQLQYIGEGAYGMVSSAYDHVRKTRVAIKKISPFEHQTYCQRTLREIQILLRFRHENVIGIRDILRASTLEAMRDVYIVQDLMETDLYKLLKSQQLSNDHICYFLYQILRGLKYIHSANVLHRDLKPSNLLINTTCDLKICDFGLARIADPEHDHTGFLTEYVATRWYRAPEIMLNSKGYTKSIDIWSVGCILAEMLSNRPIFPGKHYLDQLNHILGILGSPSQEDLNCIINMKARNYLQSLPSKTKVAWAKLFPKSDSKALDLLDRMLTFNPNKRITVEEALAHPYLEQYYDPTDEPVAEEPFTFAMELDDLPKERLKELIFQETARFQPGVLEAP

[5] = target: ERK1 (p44) inactive (GST tagged), human, Invitrogen PV 3312 (human) (UniProt P27361); assay: RPA standard curve, assay 1, LOD back-calculated from one-site fit
[6] = target: Erk1-BSA 2.7x peptide-protein conjugate (human; bovine); assay: as above
Chain of Erk1-BSA 2.7x peptide-protein conjugate (human; bovine) (peptide, as listed by the source limits assumed, chain 1 of 2): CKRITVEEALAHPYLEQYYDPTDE
Chain of Erk1-BSA 2.7x peptide-protein conjugate (human; bovine) (P02769 25-607 limits assumed, chain 2 of 2): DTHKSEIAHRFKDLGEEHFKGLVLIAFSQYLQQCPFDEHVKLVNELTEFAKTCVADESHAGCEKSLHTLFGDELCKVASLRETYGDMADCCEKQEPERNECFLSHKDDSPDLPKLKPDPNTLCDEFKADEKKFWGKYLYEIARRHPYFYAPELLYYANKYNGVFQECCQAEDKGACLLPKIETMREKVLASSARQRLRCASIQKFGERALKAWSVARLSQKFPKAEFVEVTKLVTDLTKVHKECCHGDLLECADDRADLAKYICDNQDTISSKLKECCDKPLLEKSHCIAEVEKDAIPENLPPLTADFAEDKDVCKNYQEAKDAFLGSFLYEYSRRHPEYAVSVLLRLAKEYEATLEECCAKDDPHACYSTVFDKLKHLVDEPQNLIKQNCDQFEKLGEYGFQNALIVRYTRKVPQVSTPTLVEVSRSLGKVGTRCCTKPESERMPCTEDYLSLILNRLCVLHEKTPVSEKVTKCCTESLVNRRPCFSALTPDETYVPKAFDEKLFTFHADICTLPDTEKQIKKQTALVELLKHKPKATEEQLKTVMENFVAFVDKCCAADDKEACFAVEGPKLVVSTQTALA

[7] = target: pErk1/2-BSA 2.7x peptide-protein conjugate (human; bovine); assay: RPA standard curves, mean of duplicate assays
Chain of pErk1/2-BSA 2.7x peptide-protein conjugate (human; bovine) (P02769 25-607 limits assumed): as the sequence (P02769 25-607 limits assumed, chain 2 of 2) above

[8] = target: pErk1/2-BSA 2.7x peptide-protein conjugate (human; bovine); assay: RPA standard curve, assay 1, LOD back-calculated from one-site fit

Chain of Histone H3-BSA 2.7x peptide-protein conjugate (bovine) (P02769 25-607 limits assumed): as the sequence (P02769 25-607 limits assumed, chain 2 of 2) above

With Histone H3 antibody, Abcam ab1791 the mean LOD [1] was 0.156 nM, the LOD [2] was 0.133 nM and the LOD [3] was 0.104 nM.

With “p44/42 MAPK (Erk1/2) antibody, Biosource 44-654G” the mean LOD [4] was 0.072 nM, the LOD [5] was 0.059 nM and the LOD [6] was 0.045 nM.

“p44/42 MAPK phospho (pERK1/2) Thr202/Tyr204 antibody, Cell Signaling Technology #9101” gave a mean LOD [7] of 0.03 nM and an LOD [8] of 0.028 nM.
